In article PMC4835091:

B1: FtsZ (purified, WT) [E. coli] / itself (parent)
chain: MFEPMELTNDAVIKVIGVGGGGGNAVEHMVRERIEGVEFFAVNTDAQALRKTAVGQTIQIGSGITKGLGAGANPEVGRNAADEDRDALRAALEGADMVFIAAGMGGGTGTGAAPVVAEVAKDLGILTVAVVTKPFNFEGKKRMAFAEQGITELSKHVDSLITIPNDKLLKVLGRGISLLDAFGAANDVLKGAVQGIAELITRPGLMNVDFADVRTVMSEMGYAMMGSGVASGEDRAEEAAEMAISSPLLEDIDLSGARGVLVNITAGFDLRLDEFETVGNTIRAFASDNATVVIGTSLDPDMNDELRVTVVATGIGMDKRPEITLVTNKQVQQPVMDRYQQHGMAPLTQEQKPVAKVVNDNAPQTAKEPDYLDIPAFLRKQAD
B2: FtsZ (purified, WT) [E. coli] / ZapD (purified) [E. coli] (parent)
chain 1: MQTQVLFEHPLNEKMRTWLRIEFLIQQLTVNLPIVDHAGALHFFRNVSELLDVFERGEVRTELLKELDRQQRKLQTWIGVPGVDQSRIEALIQQLKAAGSVLISAPRIGQFLREDRLIALVRQRLSIPGGCCSFDLPTLHIWLHLPQAQRDSQVETWIASLNPLTQALTMVLDLIRQSAPFRKQTSLNGFYQDNGGDADLLRLNLSLDSQLYPQISGHKSRFAIRFMPLDTENGQVPERLDFELACC
chain 2: B1 chain

How the values were obtained:
itself = variants of: B1; experiment: sedimentation (co-pelleting) assay, SDS-PAGE quantification; settings: with itself, 50 mM K-MOPS pH 6.5, 50 mM KCl, 2.5 mM MgCl2, 1 mM GTP, 3 µM BSA, read off a plot
[1] = variants of: B2; experiment: co-sedimentation assay, SDS-PAGE quantification; settings: with ZapD (purified) [E. coli], 50 mM K-MOPS pH 6.5, 50 mM KCl, 2.5 mM MgCl2, 1 mM GTP, 3 µM BSA, read off a plot

response (% FtsZ in pellet) (itself; 5 µM FtsZ with ZapD at 1:0.2)	response (% FtsZ in pellet) (itself; 5 µM FtsZ with ZapD at 1:1)	response (% FtsZ in pellet) (itself; 5 µM FtsZ, no ZapD)	response (% ZapD in pellet) ([1]; 5 µM FtsZ with ZapD at 1:0.2)	response (% ZapD in pellet) ([1]; 5 µM FtsZ with ZapD at 1:1)	Variant
43	64	23			chain 1 K380D D383K
29	41	27			chain 1 K380D
45	66	27			chain 1 D383K
39	50	23			chain 1 K380R D383R
43	69	24			chain 1 K380Q A382Q D383Q
			16	35	chain 2 K380R D383R
			14	10	chain 2 K380D
				49	chain 2 K380D D383K
			42	42	chain 2 K380Q A382Q D383Q
			71	60	chain 2 D383K
